The data set relates to trypsin. Kind of data set: trypsin protease digestion resistance of cyclotides (SDS-PAGE).

Description: Protease conditions were tested on cyclotides and variants. Samples were subjected to 10 μg of trypsin at 37° C. for up to 24 hours. […] Four elutions were collected in 200 μL fractions. Protein content of bound/eluted material was quantified based upon detection of fluorescently labeled lysines within bound/eluted sequences.
The cyclotides and empty yeast vector were then subjected to 10 μg trypsin protease digestion at 37° C. for up to 24 hours.

For “pYES-MCoTI: native (natural) MCoTI cyclotide expressed in yeast from the pYES vector (cyclo(GGVCPKILQRCRRDSDCPGACICRGNGYCGSGSD); also: cyclic cystine knot, three disulfides CysI-IV, II-V, III-VI)”, the “resistance to trypsin digestion” value (10 μg trypsin, 37° C., up to 24 hours, SDS-PAGE) is “resistant to trypsin digestion”. Also, where the note is “trypsin exposure up to 18 hrs (FIG. 28)”, the resistance towards trypsin result was “resistance towards trypsin up to 18 hrs with no change in levels”.

Values taken from patent publication US20200181210A1, “MODIFIED CYCLIC PEPTIDES AND THERAPEUTIC USE THEREOF” (THE BROAD INSTITUTE, INC., priority 2017, published 2020).
